Each block holds one molecule with its values, some of them ahead of it.
Key:
[1] = target: T1, TLX ligand-binding domain (UniProt Q9Y466 155-385); assay: BLI
[2] = target: T1, TLX ligand-binding domain; assay: AlphaScreen or HTRF

T1 sequence (Q9Y466 155-385): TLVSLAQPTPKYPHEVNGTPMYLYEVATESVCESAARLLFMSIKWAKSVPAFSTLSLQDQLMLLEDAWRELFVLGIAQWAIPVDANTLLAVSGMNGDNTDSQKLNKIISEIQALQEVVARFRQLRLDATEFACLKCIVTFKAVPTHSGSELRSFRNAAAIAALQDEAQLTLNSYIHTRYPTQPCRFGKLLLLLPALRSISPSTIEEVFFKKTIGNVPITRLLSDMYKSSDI

Kd [1]: 14.2 µM
Molecule: atrophin corepressor peptide

EC50 [2]: 1.3 µM
Molecule: untagged atrophin peptide

EC50 [2]: 3.3 µM
B1: receptor-interaction domain from NCOA3 (domain or fragment, UniProt Q9Y6Q9 621-821, looked up)
chain: LLQLLTCSSDDRGHSSLTNSPLDSSCKESSVSVTSPSGVSSSTSGGVSSTSNMHGSLLQEKHRILHKLLQNGNSPAEVAKITAEATGKDTSSITSCGDGNVVKQEQLSPKKKENNALLRYLLDRDDPSDALSKELQPQVEGVDNKMSQCTSSTIPSSSQEKDPKIKTETSEEGSGDLDNLDAILGDLTSSDFYNNSISSNG

From publication doi:10.1101/2020.10.28.359810 (bioRxiv, 2020)
